Experimental findings from the supplement of paper PMC7877785 are described below.

This series is described as follows: self-splicing fitness, log relative to wild type (ln ratio); higher = more splicing; Tetrahymena group I intron in knt gene, E. coli kanamycin selection, DiMSum; sequences stand for … in CUCUCU…GGAGGGAAAAGUUAUCAGGCAUGCACCUGGUAGCUAGUCUUUAAACCAAUAGAUUGCAUCGGUUUAAAAGGCAAGACCGUCAAAUUGCGGGAAAGGGGUCAACAGCCGUUCAGUACCAAGUCUCAGGGGAAACUUUGAGAUGGCCUUGCAAAGGGUAUGGUAAUAAGCUGACGGACAUGGUCCUAACCACGCAGCCAAGUCCUAAGUCAACAGAUCUUCUGUUGAUAUGGAUGCAGUUCACAGACUAAAUGUCGGUCGGGGAAGAUGUAUUCUUCUCAUAAGAUAUAGUCGGACCUCUCCUUAAUGGGAGCUAGCGGAUGAAGUGAUGCAACACUGGAGCCGCUGGGAACUAAUUUGUAUGCGAAAGUAUAUUGAUUAGUUUUGGAGUACUCGUGGUCG
Put shortly:
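A randomised library covering all eight P1ex-region intron nucleotides was built with the intron in the knt kanamycin-resistance gene on pET-22b(+) and held in E. coli BL21(DE3). Cells were grown overnight at 37°C or 30°C on LB agar, with or without 25 μg/mL kanamycin, plus 100 μg/mL carbenicillin, 50 μM IPTG and 0.2% rhamnose, and pooled colonies were amplicon-sequenced on an Illumina HiSeq 2500. DiMSum fitness is the error-weighted combination of wild-type-normalised replicate fold changes, kanamycin versus none.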

± gives the uncertainty stated by the source.

Take GUAUAGCAAUAUUACGAGAC: the “self-splicing fitness (ln)” value was -1.38 ± 0.4 (30 °C) and -1.24 ± 0.47 (37 °C).

On to CAUCAGCAAUAUUACGCGAA, for which the “self-splicing fitness (ln)” value is -3.13 ± 0.14 (30 °C) and -1.93 ± 0.12 (37 °C).

For AACCAGCAAUAUUACGCCUC, the “self-splicing fitness (ln)” value runs as follows: (30 °C) -0.868 ± 0.13; (37 °C) -0.399 ± 0.16.

As to UUCUAGCAAUAUUACGCUUU, the “self-splicing fitness (ln)” value reads like this: (30 °C) -3.89 ± 0.26; (37 °C) -1.82 ± 0.22.

For the sequence CGCAAGCAAUAUUACGAUCG, the “self-splicing fitness (ln)” value runs as follows: (30 °C) -1.19 ± 0.1; (37 °C) -0.342 ± 0.14.

With UUAAAGCAAUAUUACGGCCG, the “self-splicing fitness (ln)” value by setting is: (30 °C) 0.199 ± 0.14; (37 °C) 0.0811 ± 0.16.

With ACUAAGCAAUAUUACGUUCU, the “self-splicing fitness (ln)” value reads like this: (30 °C) -0.391 ± 0.071; (37 °C) -0.412 ± 0.094.

Regarding CCUAAGCAAUAUUACGUACA, the “self-splicing fitness (ln)” value was -3.4 ± 0.5 (30 °C) and -2.9 ± 0.38 (37 °C).

Take ACGGAGCAAUAUUACGAAGA: where the note is “37 °C”, the “self-splicing fitness (ln)” value was -0.799 ± 0.24.

As for GUGAAGCAAUAUUACGCGCU, the “self-splicing fitness (ln)” value is -2.31 ± 0.16 (30 °C) and -1.47 ± 0.13 (37 °C).

As to GGCCAGCAAUAUUACGCCUA, the “self-splicing fitness (ln)” value by setting is: (30 °C) -1.05 ± 0.15; (37 °C) -1.05 ± 0.15.

AGUUAGCAAUAUUACGGGGA: the “self-splicing fitness (ln)” value by setting is: (30 °C) -1.84 ± 0.17; (37 °C) -3.12 ± 0.19.

AUCAAGCAAUAUUACGGCGC: the “self-splicing fitness (ln)” value was -1.01 ± 0.093 (30 °C) and 0.428 ± 0.14 (37 °C).

AAUUAGCAAUAUUACGGGUU: the “self-splicing fitness (ln)” value was -1.4 ± 0.12 (30 °C) and -0.955 ± 0.12 (37 °C).

With ACCUAGCAAUAUUACGCGAU, the “self-splicing fitness (ln)” value is -2.32 ± 0.078 (30 °C) and -0.981 ± 0.087 (37 °C).

For the sequence CUUUAGCAAUAUUACGGACU, the “self-splicing fitness (ln)” value is, setting by setting: (30 °C) -4.41 ± 0.31; (37 °C) -3.71 ± 0.28.

As for UGUUAGCAAUAUUACGGUUC, the “self-splicing fitness (ln)” value (30 °C) is -1.02 ± 0.24 and the “self-splicing fitness (ln)” value (37 °C) was -1.25 ± 0.48.

As for GACCAGCAAUAUUACGCAAC, the “self-splicing fitness (ln)” value is -1.35 ± 0.082 (30 °C) and -0.681 ± 0.1 (37 °C).

Turning to AUUAAGCAAUAUUACGCGUU, the “self-splicing fitness (ln)” value (30 °C) is -1.78 ± 0.11 and the “self-splicing fitness (ln)” value (37 °C) was -0.33 ± 0.12.

With UGGCAGCAAUAUUACGUGCC, the “self-splicing fitness (ln)” value (37 °C) was -1.69 ± 0.26.

For GUUCAGCAAUAUUACGGUCA, the “self-splicing fitness (ln)” value reads like this: (30 °C) -1.42 ± 0.12; (37 °C) -0.536 ± 0.086.

Take UCGAAGCAAUAUUACGCACA: the “self-splicing fitness (ln)” value (30 °C) is -1.23 ± 0.13 and the “self-splicing fitness (ln)” value (37 °C) was -0.472 ± 0.16.

On to GGGGAGCAAUAUUACGUAAC, for which the “self-splicing fitness (ln)” value was -2.06 ± 0.46 (30 °C) and -0.204 ± 0.39 (37 °C).

As to AAAUAGCAAUAUUACGAUAU, the “self-splicing fitness (ln)” value (30 °C) is -1.21 ± 0.13 and the “self-splicing fitness (ln)” value (37 °C) is -0.352 ± 0.16.

Turning to GGAGAGCAAUAUUACGUACU, the “self-splicing fitness (ln)” value runs as follows: (30 °C) -1.1 ± 0.12; (37 °C) -1.16 ± 0.14.

With UAAUAGCAAUAUUACGUUUG, the “self-splicing fitness (ln)” value reads like this: (30 °C) -0.989 ± 0.099; (37 °C) 0.00265 ± 0.12.

In the case of UCGCAGCAAUAUUACGCGAA, the “self-splicing fitness (ln)” value was -1.65 ± 0.23 (30 °C) and -2.45 ± 0.25 (37 °C).

Consider UCACAGCAAUAUUACGCUCC, for which the “self-splicing fitness (ln)” value by setting is: (30 °C) -2.21 ± 0.27; (37 °C) -1.51 ± 0.37.

As for AUGCAGCAAUAUUACGUUAC, the “self-splicing fitness (ln)” value (30 °C) was -3.57 ± 0.3 and the “self-splicing fitness (ln)” value (37 °C) was -1.54 ± 0.22.

Regarding AACUAGCAAUAUUACGAGAA, the “self-splicing fitness (ln)” value (30 °C) is -2.64 ± 0.48 and the “self-splicing fitness (ln)” value (37 °C) is -1.71 ± 0.22.

As for AUCAAGCAAUAUUACGCAGG, the “self-splicing fitness (ln)” value was -2.34 ± 0.2 (30 °C) and -1.8 ± 0.2 (37 °C).

Consider UUCGAGCAAUAUUACGUCAA, for which the “self-splicing fitness (ln)” value reads like this: (30 °C) -1.54 ± 0.2; (37 °C) -2.38 ± 0.37.

For the sequence UCGGAGCAAUAUUACGACAU, the “self-splicing fitness (ln)” value is -3.91 ± 0.041 (30 °C) and -2.98 ± 0.052 (37 °C).

On to AAUUAGCAAUAUUACGACAC, for which the “self-splicing fitness (ln)” value (30 °C) is -0.631 ± 0.11 and the “self-splicing fitness (ln)” value (37 °C) is -0.0896 ± 0.14.

In the case of ACGGAGCAAUAUUACGGCUA, the “self-splicing fitness (ln)” value reads like this: (30 °C) -1.96 ± 0.21; (37 °C) -0.548 ± 0.14.

UUAGAGCAAUAUUACGAUAG: the “self-splicing fitness (ln)” value (30 °C) is -0.594 ± 0.1 and the “self-splicing fitness (ln)” value (37 °C) is -0.147 ± 0.14.

With GUCUAGCAAUAUUACGACGU, the “self-splicing fitness (ln)” value is, setting by setting: (30 °C) -0.253 ± 0.15; (37 °C) 0.696 ± 0.17.

GUAUAGCAAUAUUACGCUAU: the “self-splicing fitness (ln)” value runs as follows: (30 °C) -3.33 ± 0.33; (37 °C) -1.23 ± 0.28.
